In series [1] the target is T1, MYORG (myogenesis-regulating glycosidase) (Homo sapiens, UniProt Q6NSJ0).
T1 sequence (Q6NSJ0 80-714): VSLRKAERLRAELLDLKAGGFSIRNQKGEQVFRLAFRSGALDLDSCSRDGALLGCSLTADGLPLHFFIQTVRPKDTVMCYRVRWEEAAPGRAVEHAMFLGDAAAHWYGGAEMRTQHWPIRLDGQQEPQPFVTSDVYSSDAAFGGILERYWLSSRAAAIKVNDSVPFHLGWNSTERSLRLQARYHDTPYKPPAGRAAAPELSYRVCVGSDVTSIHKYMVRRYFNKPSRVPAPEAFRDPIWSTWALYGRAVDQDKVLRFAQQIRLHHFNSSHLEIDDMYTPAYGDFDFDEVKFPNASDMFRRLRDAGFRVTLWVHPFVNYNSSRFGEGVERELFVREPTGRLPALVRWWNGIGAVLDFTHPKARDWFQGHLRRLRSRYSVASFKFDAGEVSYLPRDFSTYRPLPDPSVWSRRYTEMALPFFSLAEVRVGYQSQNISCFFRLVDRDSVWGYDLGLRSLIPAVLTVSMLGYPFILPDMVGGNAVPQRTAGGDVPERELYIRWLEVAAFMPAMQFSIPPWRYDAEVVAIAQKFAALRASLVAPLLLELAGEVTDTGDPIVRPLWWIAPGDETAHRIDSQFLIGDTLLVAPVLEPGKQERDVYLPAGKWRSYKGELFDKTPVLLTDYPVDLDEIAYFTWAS

Series [2] has as its target T1, MYORG (myogenesis-regulating glycosidase). As to the kind of experiment: ITC; crystal structure ([…] Å soak); thermal shift (ΔTm […] °C); inhibition of 4MU-Gal hydrolysis. In kind it is binding. Details: residues 80–714 (MYORGGH31).
Series [3] deals with myogenesis-regulating glycosidase (MYORG) residues 80-714, deglycosylated with EndoH (human). As to the kind of experiment: SEC-MALS; SEC-MALLS; Superdex S200 10/300 GL in 20 mM HEPES (pH 7.5), 200 mM NaCl; ambient temperature; 100 ul of 3 mg/ml MYORG injected; 0.5 ml/min.
In series [4] the target is myogenesis-regulating glycosidase (MYORG) residues 80-714, glycosylated (human). Described as above.
Substrate in series [5]: OC[C@H]1O[C@H](O[C@H]2[C@H](O)[C@@H](O)C(O)O[C@@H]2CO)[C@H](O)[C@@H](O)[C@H]1O
Kind of series: Michaelis–Menten kinetics with purified enzyme (glucose oxidase/HRP paired-enzyme assay); KM. In kind it is biochemical, Homo sapiens. The following applies: active site, −[…] and +[…] subsites.

Consider five molecules from PMC9491548, “The primary familial brain calcification-associated protein MYORG is an α-galactosidase with restricted substrate specificity” (PLoS Biology, 2022).

Take `Cc1cc(=O)oc2cc(O[C@H]3O[C@H](CO)[C@H](O)[C@H](O)[C@H]3O)ccc12` [4MU-Gal]: the “fluorogenic hydrolysis by purified enzyme; kcat/KM” value in series [1] came to 7.247 ± 0.0637 M⁻¹ s⁻¹.
In the case of `OC[C@H]1NC[C@H](O)[C@@H](O)[C@H]1O` [DGJ, deoxygalactonojirimycin], in series [2], the Kd was 1.33 ± 0.45 µM.
For “myogenesis-regulating glycosidase (MYORG) residues 80-714, deglycosylated with EndoH (domain or fragment)”, the stoichiometry N in series [3] came to 2.
In the case of “myogenesis-regulating glycosidase (MYORG) residues 80-714, glycosylated (domain or fragment)”, in series [4], the stoichiometry N is 2.

B1: MYORG (myogenesis-regulating glycosidase) (Homo sapiens) (protein)
chain: T1 sequence (Q6NSJ0 80-714)
notes: residues 80–714 (MYORGGH31)
As for B1, in series [5], the Michaelis-Menten constant (Km) turned out to be 980 ± 7 µM.
